Measured values taken from patent US20160159919A1 (Chugai, published 2016).
Numbering of substitutions follows the chain as printed.

T1: hsEREG-His (mature human EREG-6His fusion protein) (human, UniProt O14944 30-108)
T1 sequence: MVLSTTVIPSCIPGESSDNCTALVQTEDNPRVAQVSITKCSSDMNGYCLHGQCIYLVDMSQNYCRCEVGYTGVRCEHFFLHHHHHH

B1: chimeric antibody EP27 (cH-G1/cL-k) (antibody, human IgG1, kappa, V domains shown)
VH: EDQLQQSGAELVKPGASVKLSCTASGFNIKDTYIQWVKLRPEQGLEWIGRIDPLNGNTKYVPKFQGKATITADTSSNTAYLQLSSLTSEDTAVYYCVRSGTLFDFWGQGTTLTVSS
VL: DIQMTQSPSSLSASLGGKVTITCKASQDIHKYIAWYQHKPGKGPRLLIQYTSTLQPGIPSRFSGSGSGRDYSFSISNLEPEDIATYYCLQYDNLRTFGGGTKLEIKR
notes: mouse EP27 variable regions with human IgG1 (G1) and kappa constant regions; also called chimeric EP27
B2: H206-G1d/L73-k (antibody, human IgG1, kappa, V domains shown)
VH: QDQLVQSGAEVKNPGASVKVSCKASGFNIKDTYIQWVRQAPGQGLEWMGRIDPLRRQTKYREKFEGRVTITADTSTNTAYMELSSLRSEDTAVYYCVRSGREFDFWGQGTLVTVSS
VL: DIQMTQSPSSLSASVGDRVTITCRASQDIHKYIAWYQQKPGQAPRLLIQYTSTLQPGVPSRFSGSGSGTDYTFTISSLQPEDIATYYCLQYEQLRTFGGGTKVEIKR
B3: H240-G1d/L73-k (antibody, human IgG1, kappa, V domains shown)
VH: B2 VH with N13K, R56K, F105Y
VL: B2 VL
B4: H240-G1d/L53-k (antibody, human IgG1, kappa, V domains shown)
VH: B2 VH with N13K, R56K, F105Y
VL: B2 VL with E92D, Q93N
B5: H87-G1d/LB-k (antibody, human IgG1, kappa, V domains shown)
VH: B2 VH with N13K, R55T, R56G, R61Q, R101T, E102S
VL: B2 VL with R24K, E92D, Q93N
B6: H205-G1d/L73-k (antibody, human IgG1, kappa)
heavy: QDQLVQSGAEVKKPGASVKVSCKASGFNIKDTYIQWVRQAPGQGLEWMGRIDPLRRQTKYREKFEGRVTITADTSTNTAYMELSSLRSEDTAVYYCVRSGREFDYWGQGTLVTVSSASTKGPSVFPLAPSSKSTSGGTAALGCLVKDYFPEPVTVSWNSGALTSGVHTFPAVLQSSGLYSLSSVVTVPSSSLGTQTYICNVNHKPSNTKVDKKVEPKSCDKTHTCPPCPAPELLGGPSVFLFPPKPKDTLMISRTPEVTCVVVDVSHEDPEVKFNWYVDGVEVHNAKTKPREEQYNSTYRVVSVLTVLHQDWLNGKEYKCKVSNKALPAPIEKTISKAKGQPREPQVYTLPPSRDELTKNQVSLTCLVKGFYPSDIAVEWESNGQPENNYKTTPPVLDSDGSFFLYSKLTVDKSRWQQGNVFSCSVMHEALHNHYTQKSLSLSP
light: DIQMTQSPSSLSASVGDRVTITCRASQDIHKYIAWYQQKPGQAPRLLIQYTSTLQPGVPSRFSGSGSGTDYTFTISSLQPEDIATYYCLQYEQLRTFGGGTKVEIKRTVAAPSVFIFPPSDEQLKSGTASVVCLLNNFYPREAKVQWKVDNALQSGNSQESVTEQDSKDSTYSLSSTLTLSKADYEKHKVYACEVTHQGLSSPVTKSFNRGEC
B7: H206-G1d/L53-k (antibody, human IgG1, kappa, V domains shown)
VH: B2 VH
VL: B2 VL with E92D, Q93N
B8: H231-G1d/L73-k (antibody, human IgG1, kappa)
heavy: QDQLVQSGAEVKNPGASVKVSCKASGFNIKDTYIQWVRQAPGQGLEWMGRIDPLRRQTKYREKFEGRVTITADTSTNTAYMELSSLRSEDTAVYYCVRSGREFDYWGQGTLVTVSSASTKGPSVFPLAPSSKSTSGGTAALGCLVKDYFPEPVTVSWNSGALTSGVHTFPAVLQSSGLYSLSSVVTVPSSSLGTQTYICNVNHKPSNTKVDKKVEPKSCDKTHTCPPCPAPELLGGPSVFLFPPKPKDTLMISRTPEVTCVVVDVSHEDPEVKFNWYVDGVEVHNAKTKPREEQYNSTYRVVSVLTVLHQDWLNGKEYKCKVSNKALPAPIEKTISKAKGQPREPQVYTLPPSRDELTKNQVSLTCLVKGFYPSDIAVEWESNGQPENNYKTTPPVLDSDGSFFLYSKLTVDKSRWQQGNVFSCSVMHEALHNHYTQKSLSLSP
light: B6 light
B9: H120-G1d/LB-k (antibody, human IgG1, kappa, V domains shown)
VH: B2 VH with N13K, R56G, Q57N, Y60R, R101T, E102L
VL: B2 VL with R24K, E92D, Q93N
B10: H133-G1d/LB-k (antibody, human IgG1, kappa, V domains shown)
VH: B2 VH with N13K, Q57N, R101T, E102R
VL: B2 VL with R24K, E92D, Q93N
B11: H121-G1d/LB-k (antibody, human IgG1, kappa, V domains shown)
VH: B2 VH with N13K, R56G, Q57N, K63R, R101T, E102L
VL: B2 VL with R24K, E92D, Q93N
B12: H131-G1d/LB-k (antibody, human IgG1, kappa, V domains shown)
VH: B2 VH with N13K, Q57N, G100R, R101T, E102L
VL: B2 VL with R24K, E92D, Q93N
B13: H124-G1d/LB-k (antibody, human IgG1, kappa, V domains shown)
VH: B2 VH with N13K, Y33R, R56G, Q57N, R101T, E102L
VL: B2 VL with R24K, E92D, Q93N
B14: H132-G1d/LB-k (antibody, human IgG1, kappa, V domains shown)
VH: B2 VH with N13K, Q57N, E102L
VL: B2 VL with R24K, E92D, Q93N
B15: H123-G1d/LB-k (antibody, human IgG1, kappa, V domains shown)
VH: B2 VH with N13K, R56G, Q57N, G66R, R101T, E102L
VL: B2 VL with R24K, E92D, Q93N

Each binder was assayed against T1, hsEREG-His (mature human EREG-6His …) (assay: cell-based or functional assay).
In the case of B1, the “IC50 (read off the curve), growth ratio of EGFR_BAF cells with hsEREG-His 2.5 ng/mL” value (“IC50 (read off the curve), growth ratio” below) is reported as roughly 0.7 mg/L.
For B2, the “IC50 (read off the curve), growth ratio” value was roughly 0.8 mg/L.
For B3, the “IC50 (read off the curve), growth ratio” value was roughly 0.5 mg/L.
In the case of B4, the “IC50 (read off the curve), growth ratio” value is reported as roughly 0.4 mg/L.

Each binder was assayed against T2, cynomolgus EREG (Biacore analyte) (cynomolgus monkey, UniProt O14944 63-108 (human entry), limits assumed) (assay: SPR (Biacore T100); KD for monkey EREG over KD for human EREG).
T2 construct: also called cynomolgus monkey EREG; cEREG
T2 sequence (O14944 other isoform, or with tags, fused parts or gaps limits assumed): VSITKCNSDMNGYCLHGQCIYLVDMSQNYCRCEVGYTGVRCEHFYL
Experimental: (§1) The affinity and association rate constant of an anti-EREG antibody for an antigen were measured by the single-cycle kinetics method of surface plasmon resonance assay using Biacore™-T100 (GE Healthcare Japan). HBS-EP+ (GE Healthcare Japan) was used for the running buffer, and an amine coupling kit (GE Healthcare Japan) was used to covalently bond Protein A to the CM5 chip (carboxymethyl dextran-coated chip). Each anti-EREG antibody was prepared so that approximately 350 RU will be captured by Protein A. Human EREG or cynomolgus EREG used as the analyte was prepared at 0, 0.7, 1.4, 2.8, 5.6, and 11.2 nM using HBS-EP+. Measurement was carried out by first allowing Protein A to capture the antibody solution, and then at a flow rate of 30 μL/min, successively injecting each of the 0, 0.7, 1.4, 2.8, 5.6, and 11.2 nM human EREG or cynomolgus EREG solutions for three minutes to allow reaction to take place. Then, the solution was switched to HBS-EP+, and the dissociation phase was measured for 15 minutes. After completion of the dissociation phase measurement, the sensor chip was washed with 25 mM NaOH and regenerated. The measurement at zero concentration was similarly carried out by allowing Protein A to capture the antibody solution, and performing three-minute HBS-EP+ injections successively for five times to allow reaction to take place, and then switching to HBS-EP+ to measure the dissociation phase for 15 minutes. After completion of the dissociation phase measurement, the sensor chip was washed with 25 mM NaOH and regenerated. A data analysis software exclusively for Biacore, Biacore T100 Evaluation Software Version 2.0.1, was used to perform kinetic analyses to calculate the association rate constant (kₐ), dissociation rate constant (kd), and the rate constant ratio from the obtained sensorgrams. To correct for the day-to-day differences in the measurement values, FIGS. 1 to 4 and Tables 16 and 19 show ratios based on taking the value of the control sample (cH-G1/cL-k) measured on the same day as 1.
For B1, the “cEREG (nM)/hEREG (nM)” value was 40.9 ratio.
B5 was tested, and the “cEREG (nM)/hEREG (nM)” value was 35.1 ratio.
For B2, the “cEREG (nM)/hEREG (nM)” value was 3.4 ratio.
In the case of B6, the “cEREG (nM)/hEREG (nM)” value is reported as 3.1 ratio.
For B7, the “cEREG (nM)/hEREG (nM)” value was 5.2 ratio.
With B3 the “cEREG (nM)/hEREG (nM)” value was 3.6 ratio.
B8 was tested, and the “cEREG (nM)/hEREG (nM)” value was 3.5 ratio.
In the case of B4, the “cEREG (nM)/hEREG (nM)” value is reported as 5.4 ratio.

These binders were tested against T3, Human EREG (Biacore analyte) (human, UniProt O14944 63-108) (assay: SPR (Biacore T100), antibody captured on Protein A, EREG as analyte, single-cycle kinetics).
T3 construct: also called hEREG; human epiregulin
Experimental: as §1
With B1 the Kd was 0.2 nM, the koff was 0.00022 s⁻¹ and the kon was 1.1e+06 M⁻¹ s⁻¹.
For B5, the Kd was 0.15 nM, the koff was 0.0002 s⁻¹ and the kon was 1.3e+06 M⁻¹ s⁻¹.
With B2 the Kd was 0.13 nM, the koff was 7.4e-05 s⁻¹ and the kon was 550000 M⁻¹ s⁻¹.
With B6 the Kd was 0.19 nM, the koff was 7.5e-05 s⁻¹ and the kon was 390000 M⁻¹ s⁻¹.
B7 was tested, and the Kd was 0.17 nM, the koff was 0.00011 s⁻¹ and the kon was 660000 M⁻¹ s⁻¹.
B3 was tested, and the Kd was 0.22 nM, the koff was 7.7e-05 s⁻¹ and the kon was 340000 M⁻¹ s⁻¹.
With B8 the Kd was 0.14 nM, the koff was 8.7e-05 s⁻¹ and the kon was 620000 M⁻¹ s⁻¹.
B4 was tested, and the Kd was 0.27 nM, the koff was 0.00011 s⁻¹ and the kon was 420000 M⁻¹ s⁻¹.

Each binder was assayed against T2, cynomolgus EREG (Biacore analyte) in the same assay as above.
Experimental: as §1
With B1 the Kd was 5.2 nM, the koff was 0.0052 s⁻¹ and the kon was 990000 M⁻¹ s⁻¹.
B5 gave a Kd of 5.2 nM, a koff of 0.0045 s⁻¹ and a kon of 860000 M⁻¹ s⁻¹.
B2 was tested, and the Kd was 0.45 nM, the koff was 0.00023 s⁻¹ and the kon was 500000 M⁻¹ s⁻¹.
In the case of B6, the Kd is reported as 0.69 nM, the koff is reported as 0.00026 s⁻¹ and the kon is reported as 370000 M⁻¹ s⁻¹.
In the case of B7, the Kd is reported as 0.94 nM, the koff is reported as 0.00061 s⁻¹ and the kon is reported as 640000 M⁻¹ s⁻¹.
With B3 the Kd was 0.87 nM, the koff was 0.00029 s⁻¹ and the kon was 340000 M⁻¹ s⁻¹.
B8 was tested, and the Kd was 0.66 nM, the koff was 0.00028 s⁻¹ and the kon was 420000 M⁻¹ s⁻¹.
Work on B4 yielded a Kd of 1.5 nM, a koff of 0.00089 s⁻¹ and a kon of 610000 M⁻¹ s⁻¹.

What follows are binders tested against T2, cynomolgus EREG (Biacore analyte) (assay: SPR (Biacore T100), antibody captured on Protein A, EREG as analyte; KD for monkey EREG over KD for human EREG).
Experimental: as §1
In the case of B1, the “cEREG KD (nM)/hEREG KD (nM)” value is reported as 40.9 ratio.
In the case of B5, the “cEREG KD (nM)/hEREG KD (nM)” value is reported as 35.1 ratio.
B9 was tested, and the “cEREG KD (nM)/hEREG KD (nM)” value was 9.1 ratio.
With B10 the “cEREG KD (nM)/hEREG KD (nM)” value was 6.1 ratio.
B11 was tested, and the “cEREG KD (nM)/hEREG KD (nM)” value was 8.3 ratio.
In the case of B12, the “cEREG KD (nM)/hEREG KD (nM)” value is reported as 4.7 ratio.
B13 was tested, and the “cEREG KD (nM)/hEREG KD (nM)” value was 20.6 ratio.
With B14 the “cEREG KD (nM)/hEREG KD (nM)” value was 4.6 ratio.
B15 was tested, and the “cEREG KD (nM)/hEREG KD (nM)” value was 8.2 ratio.
